Assay results from article PMC4267727.

Biological target: E2 wild-type (E2wt) scaffold protein without an HIV-1 N-terminal fusion (Geobacillus stearothermophilus)
Assay: SEC; Superdex200 gel filtration of E2wt in Solubility Buffer 2.2 (1x PBS, 50 mM L-Glutamine, 50 mM NaCl, 250 mM L-Arginine), 1 ml/min

## E2 wild-type (E2wt) scaffold protein without an HIV-1 N-terminal fusion (domain or fragment)
  stoichiometry N: 60
